Assay results reported in the RNAGym collection of RNA variant scans (doi:10.1073/pnas.2313332121).
This sample holds only a part of the variants without activity.

B1: TPR 5TU (parent)
chain: GGAUCUUCUCGAUCUAACAAAAAAGACAAAUCUGCCACAAAGCUUGAGAGCAUCUUCGGAUGCAGAGGCGGCAGCCUUCGGUGGCGCGAUAGCGCCAACGUUCUCAACUAUGACACGCAAAACGCGUGCUCCGUUGAAUGGAGUUUAUCAUG

Variants of: B1
Test: polymerase ribozyme fitness, log enrichment relative to wild type (log ratio); higher = more active; in vitro selection for triplet polymerase activity
How it was run: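 PCR was used to build mutant libraries for each subunit of a heterodimeric triplet polymerase ribozyme, which were then transcribed. A single in vitro selection round, in triplicate, used a frozen incubation at −7 °C and recovered extended constructs by gel excision, streptavidin beads and RT-PCR. Fitness is the logarithm of genotype enrichment relative to wild-type enrichment, averaged over replicates with inverse-variance weights. The logarithm is base 2, and after Illumina sequencing only genotypes with ≥10 input reads and ≥1 read per output were kept.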
With U7G A40U C43G A91U the “polymerase ribozyme fitness (log ratio)” value was no more than -4.2. In the case of U7G C95U, the “polymerase ribozyme fitness (log ratio)” value is reported as -2.93. With U7C C18G C43G G48A G58C C63U C76G the “polymerase ribozyme fitness (log ratio)” value was no more than -4.2. With C8A G11A G50C U82A G83C the “polymerase ribozyme fitness (log ratio)” value was no more than -4.2. With C8A A52C C75U C95G C96U U109A the “polymerase ribozyme fitness (log ratio)” value was no more than -4.2. In the case of U6G U134C, the “polymerase ribozyme fitness (log ratio)” value is reported as -0.128. With U7C U56A G94A A98G the “polymerase ribozyme fitness (log ratio)” value was -3.41. For C8A A12G C85U C103G G124U C129A, the “polymerase ribozyme fitness (log ratio)” value was no more than -4.2. In the case of C8G A30G G48A C69G G86A G143U, the “polymerase ribozyme fitness (log ratio)” value is reported as -4.06. For C8A A41G, the “polymerase ribozyme fitness (log ratio)” value was -4.12. With C8A A49G C76A C93A C103G C105A U127C the “polymerase ribozyme fitness (log ratio)” value was no more than -4.2. For U7A G83A A121G U145G U148G, the “polymerase ribozyme fitness (log ratio)” value was no more than -4.2. With U7A A121U A138G the “polymerase ribozyme fitness (log ratio)” value was no more than -4.2. With C8A U9C A30U C87U C95U C129A the “polymerase ribozyme fitness (log ratio)” value was no more than -4.2. For U7C A12C C87A C105A C116G A138U G152U, the “polymerase ribozyme fitness (log ratio)” value was no more than -4.2. In the case of U7G C69G C93A, the “polymerase ribozyme fitness (log ratio)” value is reported as no more than -4.2. In the case of U7G A41U C43U U82G G92U U146A, the “polymerase ribozyme fitness (log ratio)” value is reported as no more than -4.2. With U7G U130A the “polymerase ribozyme fitness (log ratio)” value was -4.18. With C8A U144C the “polymerase ribozyme fitness (log ratio)” value was -4.16. With C8A U53A G81C C85G C108U A138G A147G A150U G152U the “polymerase ribozyme fitness (log ratio)” value was -3.5. With C8G A28U C87U C105U the “polymerase ribozyme fitness (log ratio)” value was no more than -4.2. With C8G A24G A30G G70A G136C the “polymerase ribozyme fitness (log ratio)” value was no more than -4.2. With C8A A26G G59U A89G C93G C95U C108U C132A the “polymerase ribozyme fitness (log ratio)” value was no more than -4.2. For U7G A26C U31G U55A G86C G126U, the “polymerase ribozyme fitness (log ratio)” value was no more than -4.2. For C8G C35G C105G U144A, the “polymerase ribozyme fitness (log ratio)” value was no more than -4.2. In the case of C8A G42A G59U G67C, the “polymerase ribozyme fitness (log ratio)” value is reported as no more than -4.2. For C8A C57U G67C C95A A97G U151A, the “polymerase ribozyme fitness (log ratio)” value was no more than -4.2. For U7G A19G, the “polymerase ribozyme fitness (log ratio)” value was -2.47. In the case of C8G C10U C51A G80C C95A U102G G124U A137C, the “polymerase ribozyme fitness (log ratio)” value is reported as no more than -4.2. For C8A A16C C18G A49C C95U A98G A142U, the “polymerase ribozyme fitness (log ratio)” value was no more than -4.2. In the case of U7C G46A G65U C76A U77G C79A G94A C96A U135A U144G G152U, the “polymerase ribozyme fitness (log ratio)” value is reported as no more than -4.2. With C8G C93U the “polymerase ribozyme fitness (log ratio)” value was -3.64. With C8G C14U A29U G50U C54U C75G A119U the “polymerase ribozyme fitness (log ratio)” value was no more than -4.2. For U7G A40U A66C G81C A120G U146G, the “polymerase ribozyme fitness (log ratio)” value was no more than -4.2. For U7G G92U, the “polymerase ribozyme fitness (log ratio)” value was -2.39. For U6G U55A, the “polymerase ribozyme fitness (log ratio)” value was 0.402. For U7G A16C, the “polymerase ribozyme fitness (log ratio)” value was -2.38. For C8A G48C U55A, the “polymerase ribozyme fitness (log ratio)” value was no more than -4.2. In the case of C8G U13C A17U A29U C38U U44A G84U C87G G92A G140A, the “polymerase ribozyme fitness (log ratio)” value is reported as no more than -4.2. In the case of U7A A21U G25U U44A A49C C54A C63G C85U G86U C99G, the “polymerase ribozyme fitness (log ratio)” value is reported as no more than -4.2. For U7G A20C A40C G48U A64U A89U G92U U101C C132A, the “polymerase ribozyme fitness (log ratio)” value was no more than -4.2. For U7A U44A, the “polymerase ribozyme fitness (log ratio)” value was no more than -4.2. With C8A U15G C18U G58C C96G the “polymerase ribozyme fitness (log ratio)” value was -3.95. In the case of C8G A23U A30U G42C G83C A97U, the “polymerase ribozyme fitness (log ratio)” value is reported as no more than -4.2. For U7A U55A C85U C114A G136C, the “polymerase ribozyme fitness (log ratio)” value was no more than -4.2. With U7A U9A A98G A121G the “polymerase ribozyme fitness (log ratio)” value was no more than -4.2. In the case of C8A A17G A73U U78G C87U, the “polymerase ribozyme fitness (log ratio)” value is reported as no more than -4.2. For U7G C10A C75A C87A C125G A138U, the “polymerase ribozyme fitness (log ratio)” value was no more than -4.2. In the case of U7A C76U G94A C105U U151A, the “polymerase ribozyme fitness (log ratio)” value is reported as -3.84. For U7C A20C A49C U77C A91U, the “polymerase ribozyme fitness (log ratio)” value was no more than -4.2. With U6G U53C G92C U144C the “polymerase ribozyme fitness (log ratio)” value was -1.5. In the case of C8A A17G U78G G94A G133A U134A, the “polymerase ribozyme fitness (log ratio)” value is reported as no more than -4.2. In the case of U7G G83A A91U C131U, the “polymerase ribozyme fitness (log ratio)” value is reported as -3.4. For U7A C93G A113U A138C, the “polymerase ribozyme fitness (log ratio)” value was no more than -4.2. In the case of C8A A22C C27U U44C C51U C79A C93G C95G C105G, the “polymerase ribozyme fitness (log ratio)” value is reported as no more than -4.2. With C8A C14U C54A C99A the “polymerase ribozyme fitness (log ratio)” value was no more than -4.2. For U7G A12G C18G C32U G94C A115U, the “polymerase ribozyme fitness (log ratio)” value was no more than -4.2. For C8A C35U C43A G83C G141U, the “polymerase ribozyme fitness (log ratio)” value was no more than -4.2. For C8A A41C A66U C69A U77C G83C G126U U130G G141C G152C, the “polymerase ribozyme fitness (log ratio)” value was no more than -4.2. In the case of U7G A21C C35A A47C C99A C123A, the “polymerase ribozyme fitness (log ratio)” value is reported as no more than -4.2. With U7A C14U U31A C57G U61A A89U U90C C99A A115U A122C the “polymerase ribozyme fitness (log ratio)” value was no more than -4.2. With U7G A23G U53A C99G C116A C125G A137C the “polymerase ribozyme fitness (log ratio)” value was no more than -4.2. In the case of U7G A23G, the “polymerase ribozyme fitness (log ratio)” value is reported as no more than -4.2. For C8A A26G A37C G62A A120G G140C G152A, the “polymerase ribozyme fitness (log ratio)” value was -4.13. For C8A C18U C35G C57U C76A G92U G117C U134A, the “polymerase ribozyme fitness (log ratio)” value was no more than -4.2. With U7C C18G G94A G117C the “polymerase ribozyme fitness (log ratio)” value was -3.67. For U6G U55G G92A, the “polymerase ribozyme fitness (log ratio)” value was -3.71. For C8A A73U G83A C93U A138C U145C, the “polymerase ribozyme fitness (log ratio)” value was no more than -4.2. With U7G A21C C36U C54U C79G G83A U144A the “polymerase ribozyme fitness (log ratio)” value was no more than -4.2. With U7G C54U G92U the “polymerase ribozyme fitness (log ratio)” value was -2.21. For C8A A47G A49G A52C U55A G88U U104A A119U U146C U148A, the “polymerase ribozyme fitness (log ratio)” value was no more than -4.2. With U7C U9G C54U A107C U127A the “polymerase ribozyme fitness (log ratio)” value was no more than -4.2. In the case of C8A G25U U31A U82C C118G U145C, the “polymerase ribozyme fitness (log ratio)” value is reported as no more than -4.2. For C8A A19G G62A G67C C93A A97U G112U A142G U148A, the “polymerase ribozyme fitness (log ratio)” value was no more than -4.2. With U7A A23C C36A U56A A91U C132G the “polymerase ribozyme fitness (log ratio)” value was -3.78. With U7A A17C A142C the “polymerase ribozyme fitness (log ratio)” value was -3.31. With C8A A16G G50U G83C U135C G136C the “polymerase ribozyme fitness (log ratio)” value was no more than -4.2. In the case of C8G A23U C27G A40G A49C C87U U104G U134G G140A, the “polymerase ribozyme fitness (log ratio)” value is reported as no more than -4.2. For C8G A21C G94C C99A, the “polymerase ribozyme fitness (log ratio)” value was no more than -4.2. For U7A G92U, the “polymerase ribozyme fitness (log ratio)” value was -3.96. With U7A A20U U31G C116U the “polymerase ribozyme fitness (log ratio)” value was -3.58. For U7G U15A A41U A66C G94U C99G G133U U148G, the “polymerase ribozyme fitness (log ratio)” value was no more than -4.2. With U7A G11A A41G A66C U77C C85U A106C U151A the “polymerase ribozyme fitness (log ratio)” value was no more than -4.2. In the case of C8G G84U G100U C132U U144A, the “polymerase ribozyme fitness (log ratio)” value is reported as no more than -4.2.
